Data reported in the supplement of paper PMC10065799, “High-throughput profiling of sequence recognition by tyrosine kinases and SH2 domains using bacterial peptide display” (eLife, 2023).

System: AncSZ
Test: phosphorylation enrichment, bacterial display (enrichment ratio); higher = better substrate or ligand; peptides without Tyr show the background
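Further: 11-residue human phosphosite peptides and single-mutation variants displayed on the E. coli surface, counted by deep sequencing, each peptide's frequency after selection divided by its frequency in the unselected input library; frequency after pTyr selection over input frequency; kinase dosed for 20-30% of maximal phosphorylation in three min.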

Point of comparison: AGRSGYDNREI [BCL2_Y9_T7S], phosphorylation enrichment 0.574. Against it:
- VLPIDYFFPPQ [AR_Y552_YF] — higher, 2.91
- GRTNIYKNKKD [SLC26A3_Y520] — lower, 0.467
- RLLRGYDQSAF [HLA-C_Y137_YF] — higher, 0.669
- RPSELYYSKIG [SMG1_Y2253] — higher, 1.08
- VTQEQYELHCE [CBL_Y368_Y371H] — higher, 1.2
- KWHREYNSKFV [RICTOR_Y835_YF] — lower, 0.556
- SGRSGYCLGTR [SCO1_Y60_P58S] — higher, 0.586
- QADVTYVNTQL [MERTK_Y872_I871T] — higher, 1.11
- GPIIRYDLGGA [CYP11B1_Y81_F79I] — higher, 0.648
- IIGNGYFFRVF [MYBPC3_Y1135_YF] — higher, 0.844
- TTSQPYRCLCS [USH2A_Y534] — higher, 0.951
- DLDATYRPMYS [JUP_Y701_M697L] — higher, 0.699
- WIGRKYKKVRF [F8_Y442_R437W] — lower, 0.567
- DLDTEYGSGYP [RNASEH2A_Y206_D205E] — higher, 1.23
- SFCFRYCCAAR [SUMF1_Y344_R345C_YF] — higher, 1.25
- AGTILYHAHLD [ASS1_Y291] — higher, 0.591
- ALWYIYLHTRS [ENG_Y614_S615L] — higher, 1.1
- FNDSAYNQQLI [ZPLD1_Y198_T197A_YF] — higher, 0.641
- ETDTRYFDEEF [AKT1_Y437] — higher, 1.32
- LDVDVYGPSVP [NUBPL_Y109] — higher, 1.06
- LTELGYSFVTT [ACTA1_Y200_R198L] — higher, 3.14
- FPKARYHWLVL [APTX_Y214_YF] — higher, 1.03
- SLDLSYYHTSS [EMD_Y181_P183H] — higher, 1.05
- LVRAFYCERRR [CARD11_Y970] — higher, 0.684
- RPFFLYVAFHD [SGSH_Y174] — higher, 1.28
- RRNTFYASIAK [ACADM_Y353_YF] — higher, 0.605
- ISGLKYPVSQQ [BTK_Y375_R372G] — lower, 0.529
- VLALWYFFLTH [ZDHHC23_Y127_YF] — higher, 1.42

Target: EPHB1 (UniProt P54762)
Sequence (P54762 whole entry, looked up): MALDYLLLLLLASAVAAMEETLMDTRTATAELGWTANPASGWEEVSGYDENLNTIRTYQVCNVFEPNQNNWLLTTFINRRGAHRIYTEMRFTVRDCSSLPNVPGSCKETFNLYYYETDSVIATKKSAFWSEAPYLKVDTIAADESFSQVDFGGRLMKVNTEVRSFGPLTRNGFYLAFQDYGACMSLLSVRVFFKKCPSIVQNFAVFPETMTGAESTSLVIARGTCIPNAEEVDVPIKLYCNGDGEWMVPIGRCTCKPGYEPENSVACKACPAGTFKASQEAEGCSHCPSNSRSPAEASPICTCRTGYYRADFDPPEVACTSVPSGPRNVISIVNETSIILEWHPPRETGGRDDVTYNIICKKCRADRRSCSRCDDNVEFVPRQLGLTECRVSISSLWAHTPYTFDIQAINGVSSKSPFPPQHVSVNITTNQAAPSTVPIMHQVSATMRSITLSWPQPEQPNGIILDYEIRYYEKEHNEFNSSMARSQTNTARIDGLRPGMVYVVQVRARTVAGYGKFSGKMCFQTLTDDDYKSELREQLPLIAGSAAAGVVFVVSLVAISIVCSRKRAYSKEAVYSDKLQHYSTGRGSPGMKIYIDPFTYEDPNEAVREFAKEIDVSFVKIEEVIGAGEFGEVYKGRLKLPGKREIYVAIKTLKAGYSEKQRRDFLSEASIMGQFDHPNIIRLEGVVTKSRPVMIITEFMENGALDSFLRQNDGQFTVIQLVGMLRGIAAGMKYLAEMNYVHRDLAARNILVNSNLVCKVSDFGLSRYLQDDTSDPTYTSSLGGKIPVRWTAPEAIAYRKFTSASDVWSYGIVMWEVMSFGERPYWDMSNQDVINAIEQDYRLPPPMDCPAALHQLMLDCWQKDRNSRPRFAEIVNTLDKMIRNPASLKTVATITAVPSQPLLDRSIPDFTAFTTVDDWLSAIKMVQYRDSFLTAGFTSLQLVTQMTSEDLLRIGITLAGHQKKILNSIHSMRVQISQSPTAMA
Test: as above

Point of comparison: RPSELYYSKIG [SMG1_Y2253], phosphorylation enrichment 1.79. Against it:
- VLPIDYFFPPQ [AR_Y552_YF] — lower, 0.708
- GRTNIYKNKKD [SLC26A3_Y520] — lower, 0.415
- RLLRGYDQSAF [HLA-C_Y137_YF] — lower, 0.422
- VTQEQYELHCE [CBL_Y368_Y371H] — lower, 0.708
- KWHREYNSKFV [RICTOR_Y835_YF] — lower, 0.35
- SGRSGYCLGTR [SCO1_Y60_P58S] — lower, 0.309
- QADVTYVNTQL [MERTK_Y872_I871T] — lower, 0.717
- GPIIRYDLGGA [CYP11B1_Y81_F79I] — lower, 0.585
- IIGNGYFFRVF [MYBPC3_Y1135_YF] — lower, 0.433
- TTSQPYRCLCS [USH2A_Y534] — lower, 0.473
- DLDATYRPMYS [JUP_Y701_M697L] — lower, 0.399
- WIGRKYKKVRF [F8_Y442_R437W] — lower, 0.547
- DLDTEYGSGYP [RNASEH2A_Y206_D205E] — lower, 0.652
- AGRSGYDNREI [BCL2_Y9_T7S] — lower, 0.386
- SFCFRYCCAAR [SUMF1_Y344_R345C_YF] — lower, 0.659
- AGTILYHAHLD [ASS1_Y291] — lower, 0.526
- ALWYIYLHTRS [ENG_Y614_S615L] — lower, 0.542
- FNDSAYNQQLI [ZPLD1_Y198_T197A_YF] — lower, 0.489
- ETDTRYFDEEF [AKT1_Y437] — lower, 0.633
- LDVDVYGPSVP [NUBPL_Y109] — lower, 0.622
- LTELGYSFVTT [ACTA1_Y200_R198L] — lower, 1.44
- FPKARYHWLVL [APTX_Y214_YF] — lower, 0.588
- SLDLSYYHTSS [EMD_Y181_P183H] — lower, 0.765
- LVRAFYCERRR [CARD11_Y970] — lower, 0.62
- RPFFLYVAFHD [SGSH_Y174] — lower, 0.731
- RRNTFYASIAK [ACADM_Y353_YF] — lower, 0.453
- ISGLKYPVSQQ [BTK_Y375_R372G] — lower, 0.501
- VLALWYFFLTH [ZDHHC23_Y127_YF] — lower, 0.963

Target: EPHB2 (UniProt P29323)
Sequence (P29323 whole entry, looked up): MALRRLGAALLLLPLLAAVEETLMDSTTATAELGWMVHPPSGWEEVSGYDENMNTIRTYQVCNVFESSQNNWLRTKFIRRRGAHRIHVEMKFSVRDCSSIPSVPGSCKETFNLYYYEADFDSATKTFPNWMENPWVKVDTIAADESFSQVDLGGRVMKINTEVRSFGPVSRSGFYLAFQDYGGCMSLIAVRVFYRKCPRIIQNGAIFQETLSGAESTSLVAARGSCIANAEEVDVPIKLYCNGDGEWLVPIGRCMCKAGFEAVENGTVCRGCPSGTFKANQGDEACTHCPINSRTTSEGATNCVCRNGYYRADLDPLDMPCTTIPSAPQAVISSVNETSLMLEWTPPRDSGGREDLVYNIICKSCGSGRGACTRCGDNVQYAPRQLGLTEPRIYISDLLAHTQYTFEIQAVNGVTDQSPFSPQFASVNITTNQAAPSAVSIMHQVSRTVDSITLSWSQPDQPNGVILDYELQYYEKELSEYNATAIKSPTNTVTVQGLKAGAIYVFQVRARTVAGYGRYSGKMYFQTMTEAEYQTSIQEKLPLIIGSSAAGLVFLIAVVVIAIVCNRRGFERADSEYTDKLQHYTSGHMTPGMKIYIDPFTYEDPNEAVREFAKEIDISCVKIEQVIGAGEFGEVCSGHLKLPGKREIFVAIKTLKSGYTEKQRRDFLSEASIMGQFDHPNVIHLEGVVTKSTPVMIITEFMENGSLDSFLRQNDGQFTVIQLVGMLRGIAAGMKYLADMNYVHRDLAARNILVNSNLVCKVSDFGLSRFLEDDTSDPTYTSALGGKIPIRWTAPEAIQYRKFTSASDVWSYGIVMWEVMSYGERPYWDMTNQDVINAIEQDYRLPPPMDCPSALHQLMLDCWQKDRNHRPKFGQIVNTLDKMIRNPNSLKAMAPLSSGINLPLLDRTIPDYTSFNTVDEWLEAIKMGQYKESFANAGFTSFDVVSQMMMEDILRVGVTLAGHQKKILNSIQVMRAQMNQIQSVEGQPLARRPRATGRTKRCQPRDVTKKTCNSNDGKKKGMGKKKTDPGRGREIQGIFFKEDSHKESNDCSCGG
Test: as above

Point of comparison: AGRSGYDNREI [BCL2_Y9_T7S], phosphorylation enrichment 0.409. Against it:
- VLPIDYFFPPQ [AR_Y552_YF] — higher, 0.914
- GRTNIYKNKKD [SLC26A3_Y520] — lower, 0.393
- RLLRGYDQSAF [HLA-C_Y137_YF] — higher, 0.526
- RPSELYYSKIG [SMG1_Y2253] — higher, 0.88
- VTQEQYELHCE [CBL_Y368_Y371H] — higher, 0.601
- KWHREYNSKFV [RICTOR_Y835_YF] — lower, 0.391
- SGRSGYCLGTR [SCO1_Y60_P58S] — higher, 0.535
- QADVTYVNTQL [MERTK_Y872_I871T] — higher, 0.584
- GPIIRYDLGGA [CYP11B1_Y81_F79I] — lower, 0.366
- IIGNGYFFRVF [MYBPC3_Y1135_YF] — higher, 0.461
- TTSQPYRCLCS [USH2A_Y534] — higher, 0.587
- DLDATYRPMYS [JUP_Y701_M697L] — higher, 0.444
- WIGRKYKKVRF [F8_Y442_R437W] — higher, 0.518
- DLDTEYGSGYP [RNASEH2A_Y206_D205E] — higher, 0.542
- SFCFRYCCAAR [SUMF1_Y344_R345C_YF] — higher, 0.611
- AGTILYHAHLD [ASS1_Y291] — higher, 0.78
- ALWYIYLHTRS [ENG_Y614_S615L] — higher, 0.476
- FNDSAYNQQLI [ZPLD1_Y198_T197A_YF] — lower, 0.383
- ETDTRYFDEEF [AKT1_Y437] — higher, 0.714
- LDVDVYGPSVP [NUBPL_Y109] — higher, 0.536
- LTELGYSFVTT [ACTA1_Y200_R198L] — higher, 1.46
- FPKARYHWLVL [APTX_Y214_YF] — higher, 0.457
- SLDLSYYHTSS [EMD_Y181_P183H] — higher, 0.58
- LVRAFYCERRR [CARD11_Y970] — higher, 1.71
- RPFFLYVAFHD [SGSH_Y174] — higher, 0.579
- RRNTFYASIAK [ACADM_Y353_YF] — higher, 0.455
- ISGLKYPVSQQ [BTK_Y375_R372G] — higher, 0.529
- VLALWYFFLTH [ZDHHC23_Y127_YF] — higher, 0.676

Target: FGFR1 (UniProt P11362)
Sequence (P11362 whole entry, looked up): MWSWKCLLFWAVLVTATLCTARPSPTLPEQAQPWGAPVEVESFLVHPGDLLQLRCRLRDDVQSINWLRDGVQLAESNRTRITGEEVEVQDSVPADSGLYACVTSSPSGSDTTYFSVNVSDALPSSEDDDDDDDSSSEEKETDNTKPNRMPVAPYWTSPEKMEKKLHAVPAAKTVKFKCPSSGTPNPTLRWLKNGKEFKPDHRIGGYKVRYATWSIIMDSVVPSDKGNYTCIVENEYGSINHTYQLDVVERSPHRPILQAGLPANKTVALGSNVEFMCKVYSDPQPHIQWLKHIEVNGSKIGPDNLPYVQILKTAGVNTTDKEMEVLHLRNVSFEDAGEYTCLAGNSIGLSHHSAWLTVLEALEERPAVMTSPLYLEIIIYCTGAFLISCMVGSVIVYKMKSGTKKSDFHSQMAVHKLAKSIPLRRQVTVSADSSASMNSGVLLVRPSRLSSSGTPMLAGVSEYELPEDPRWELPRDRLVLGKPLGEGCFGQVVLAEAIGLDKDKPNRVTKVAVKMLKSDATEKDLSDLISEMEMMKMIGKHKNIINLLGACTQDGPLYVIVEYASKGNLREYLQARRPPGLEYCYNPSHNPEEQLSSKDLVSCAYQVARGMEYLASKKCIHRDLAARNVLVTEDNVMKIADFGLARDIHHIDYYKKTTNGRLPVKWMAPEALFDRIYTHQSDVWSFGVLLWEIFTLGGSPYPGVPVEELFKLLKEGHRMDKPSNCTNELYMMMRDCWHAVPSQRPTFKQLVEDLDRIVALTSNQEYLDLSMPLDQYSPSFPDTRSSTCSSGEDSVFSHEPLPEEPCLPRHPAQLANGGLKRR
Test: as above

Point of comparison: AGRSGYDNREI [BCL2_Y9_T7S], phosphorylation enrichment 0.366. Against it:
- VLPIDYFFPPQ [AR_Y552_YF] — higher, 11.5
- GRTNIYKNKKD [SLC26A3_Y520] — higher, 0.369
- RLLRGYDQSAF [HLA-C_Y137_YF] — higher, 0.412
- RPSELYYSKIG [SMG1_Y2253] — higher, 3.1
- VTQEQYELHCE [CBL_Y368_Y371H] — higher, 0.542
- KWHREYNSKFV [RICTOR_Y835_YF] — higher, 0.371
- SGRSGYCLGTR [SCO1_Y60_P58S] — higher, 0.518
- QADVTYVNTQL [MERTK_Y872_I871T] — higher, 0.504
- GPIIRYDLGGA [CYP11B1_Y81_F79I] — higher, 0.617
- IIGNGYFFRVF [MYBPC3_Y1135_YF] — lower, 0.334
- TTSQPYRCLCS [USH2A_Y534] — higher, 0.552
- DLDATYRPMYS [JUP_Y701_M697L] — higher, 0.383
- WIGRKYKKVRF [F8_Y442_R437W] — higher, 0.506
- DLDTEYGSGYP [RNASEH2A_Y206_D205E] — higher, 0.507
- SFCFRYCCAAR [SUMF1_Y344_R345C_YF] — higher, 0.504
- AGTILYHAHLD [ASS1_Y291] — higher, 0.535
- ALWYIYLHTRS [ENG_Y614_S615L] — higher, 0.62
- FNDSAYNQQLI [ZPLD1_Y198_T197A_YF] — lower, 0.338
- ETDTRYFDEEF [AKT1_Y437] — higher, 0.567
- LDVDVYGPSVP [NUBPL_Y109] — higher, 0.483
- LTELGYSFVTT [ACTA1_Y200_R198L] — higher, 5.04
- FPKARYHWLVL [APTX_Y214_YF] — higher, 0.645
- SLDLSYYHTSS [EMD_Y181_P183H] — higher, 1.53
- LVRAFYCERRR [CARD11_Y970] — higher, 0.766
- RPFFLYVAFHD [SGSH_Y174] — higher, 0.503
- RRNTFYASIAK [ACADM_Y353_YF] — higher, 0.442
- ISGLKYPVSQQ [BTK_Y375_R372G] — higher, 0.428
- VLALWYFFLTH [ZDHHC23_Y127_YF] — higher, 2.08
